The record followed here is patent US20140227324A1.

The target of the test is mouse IL12Rβ1 (IL12 Receptor Beta 1, transmembrane-containing form) (mouse) (UniProt Q60837). The test is described as follows: cell-based or functional assay.
Sequence of UniProt Q60837 (Q60837 20-738): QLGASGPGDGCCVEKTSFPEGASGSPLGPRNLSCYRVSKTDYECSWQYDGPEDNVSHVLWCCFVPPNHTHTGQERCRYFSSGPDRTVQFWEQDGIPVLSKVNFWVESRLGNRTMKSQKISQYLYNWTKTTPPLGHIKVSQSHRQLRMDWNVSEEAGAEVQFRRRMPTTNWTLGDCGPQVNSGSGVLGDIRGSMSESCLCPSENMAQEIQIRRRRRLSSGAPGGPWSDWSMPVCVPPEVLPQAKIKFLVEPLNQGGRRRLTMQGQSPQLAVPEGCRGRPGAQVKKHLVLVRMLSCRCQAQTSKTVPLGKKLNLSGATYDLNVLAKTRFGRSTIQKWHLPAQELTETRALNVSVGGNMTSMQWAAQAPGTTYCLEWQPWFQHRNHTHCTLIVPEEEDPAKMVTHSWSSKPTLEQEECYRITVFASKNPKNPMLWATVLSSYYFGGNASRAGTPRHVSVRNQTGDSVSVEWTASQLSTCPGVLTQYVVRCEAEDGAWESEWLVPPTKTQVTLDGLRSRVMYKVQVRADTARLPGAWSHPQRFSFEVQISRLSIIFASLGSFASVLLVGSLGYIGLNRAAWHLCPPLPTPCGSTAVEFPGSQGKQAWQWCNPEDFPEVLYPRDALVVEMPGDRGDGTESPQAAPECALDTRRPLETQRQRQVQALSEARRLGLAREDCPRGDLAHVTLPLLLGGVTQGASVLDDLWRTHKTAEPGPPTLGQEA

Regarding IL12 (ligand), the STAT4 activity (GAS-promoter luciferase reporter), IL12Rβ1ΔTM co-transfected alongside IL12Rβ1 and IL12Rβ2 came out at 30 % increase.

Substance IL12(p40)2 (ligand) showed an NIH/3T3 migration toward IL12(p40)2, IL12Rβ1ΔTM co-transfected alongside IL12Rβ1 of 50 % increase.
